Positions count from the first letter of the chain named. Values belong to the binder of their own block, whether it stands above or below them. Ends that are not written are not given here.
Target: IGF1 receptor (IGF1R) (UniProt P08069)
Assay: method not stated; in the absence of glucose

Kd: 30.4 nM
B1: SEQ ID NO: 5 (ligand)
chain: FVDQHLCGSHLVEALYLVCGERGFFYTPKTYDGKGIVEQCCTSICSLYQLENYCG
modifications: ends and bridges not checked; cysteine pairing not given here

Kd: 26.8 nM
B2: SEQ ID NO: 7 (ligand)
chain: B1 chain with D3G
modifications: ends and bridges not checked; cysteine pairing not given here

Source: patent US20240343773A1
